Experiments:
[1] = system: O=[N+]([O-])c1ccccc1O[C@@H]1O[C@H](CO)[C@H](O)[C@H](O)[C@H]1O; assay: o-nitrophenol release, A420, Michaelis-Menten non-linear fit; assay type: biochemical, Bifidobacterium longum subsp. infantis; details: optimum pH 5.0 and optimum temperature 45-55 °C, 0.1-4 mM ONPG
[2] = substrate: O=[N+]([O-])c1ccccc1O[C@@H]1O[C@H](CO)[C@H](O)[C@H](O)[C@H]1O; assay: as above; assay type: biochemical, Bifidobacterium longum; details: optimum pH 5.0-6.0 and optimum temperature 45-55 °C, 0.1-4 mM ONPG

Molecule	Km [1]	kcat [1]	kcat/Km [1]	Km [2]	kcat [2]	kcat/Km [2]
Blon_0268 (Bifidobacterium longum subsp. infantis ATCC 15697 = JCM 1222 = DSM 20088)	0.60 mM	5.11 s⁻¹	8500 M⁻¹ s⁻¹			
Blon_2123 (Bifidobacterium longum subsp. infantis ATCC 15697 = JCM 1222 = DSM 20088) (protein) MRARRDFAWPKLLTADGRGIAFGGDYNPDQWPEDVWDDDIRLMGQAGVNTVALAIFSWDRLQPTEDHWNFDWLDRIIDKLGQAGIAVDLASATATAPLWLYENHPEVLPRDKYGHPVNAGSRQSWSPTSPVFKEYALTLCRKLAERYGTNPYVTAWHMGNEYGWNNRDDYSDNALEAFRAWCRRKYGTIDALNQAWGTTFWGQEMTGFDEVLIPRFMGADSMVNPGQKLDFERFGNDMLLDFYKAERDAIAEICPDKPFTTNFMISTDQCCMDYAAWAEEVNFVSNDHYFHEGESHLDELACSDALVDSLALGKPWYVMEHSTSAVQWKPLNTRKRNGETVRDSLAHVAMGADAINFFQWRASAFGAEAFHSAMVPHAGENTKLFRQVCELGATLQALADAGVQGSELAHADTAILFSAESEWATRSETLPSMKLNHWHDVRDWYRAFLNAGARADIVPLAYDWSSYKTIVLPTVLMLSDADTRRLAGFVQDGGRVVVGYATGLLDERFHTWLGGYPGAGDGLLRSMLGVRGEEFNILGTETEDEPSEIRLASTGDSPTMDGAVTRLWQNDVTVAGPHVQVLAAYAGEEANEWELDGTAAITRNTYGEGEAYFLGCDLGVSDLTRFVGGWLAARPQDGRQPEANLRSPASGVTSDVLHTVRQSDDAIFDFYLTRGKSDVELRDIAGEPIVLFRAERGSDGGAYTVHRNGVLVMKRPNPSV				1.06 mM	270 s⁻¹	250000 M⁻¹ s⁻¹

Reference: PMC3593662
